Results taken from patent publication US20130331517A1, “Novel Polymer Derivative Of Cytidine Metabolic Antagonist” (NIPPON KAYAKU KABUSHIKI KAISHA, priority 2010, published 2013).

How the values were obtained:
[1] = tested on: human lung cancer LC-11-JCK; test: Anti-tumor activity test, human lung cancer LC-11-JCK transplanted subcutaneously in F344 nude rat; format: in vivo; settings: for Relative ratio of tumor volume: F344 nude rat, day 23 after administration start, relative to no-treatment group (100.0); for Anti-tumor effects in comparison to 3′-ethynylcytidine as the control drug: maximum dose, when the change of the body weight was about 10% or less of the maximum decrease rate
Method: The human lung cancer LC-11-JCK which had been subcultured under the skin of a rat was made to a block of about 2 mm square, and transplanted subcutaneously into the dorsal part of F344 nude rat using an over-needle catheter. From day 13 after the tumor transplant, the polymer derivative of the present invention (Compound 5, Compound 10) was administered intravenously single time in the dose listed in Table 1. In addition, the control drug (3′-ethynylcytidine; ECyd) was administered subcutaneously by infusion over 24 hours using Alzet pump. Meanwhile, each compound was used as dissolved in 5% glucose solution. The administration was performed such that the dose when the change of the body weight was about 10% of the maximum decrease rate was taken as the maximum dose.
The tumor volume was measured on the start day of the administration and on day 23 after the administration start with vernier calipers for the major axis (L mm) and minor axis (W mm) of the tumor, and the tumor volume was calculated from (L×W^2)/2, and the relative ratio of the tumor volume with respect to the tumor volume of the no-treatment group (control) was listed in Table 1.

[2] = Particle size (RMS radius) and micelle formation in aqueous solution by dynamic and static light scattering; format: physicochemical; settings: aqueous solution 1 mg/mL; for RMS radius by Gaussian distribution analysis (dynamic light scattering): volume weighting
Method: Hereinafter, the present invention will be further explained with Examples. However, the present invention is not limited to these Examples. Meanwhile, when the compound of the present invention forms particles such as a micelle in an aqueous solution in Examples, the size of the particles (particle size) is indicated with Gaussian distribution analysis by dynamic light scattering method or by static light scattering method as RMS radius. The former was measured with Zeta Potential/Particle sizer NICOMP™ 380ZLS (manufactured by Particle Sizing Systems), and the latter was measured with DAWN EOS™ (manufactured by Wyatt Technology), and calculated.

[3] = Medicament release of 3′-ethynylcytidine polymer derivative in the absence of enzyme (PBS, pH 7.4, 37° C.); format: physicochemical; settings: 1 mg/mL, no hydrolysis enzyme
Method: Compound 5, Compound 10, Compound 15, Compound 21 and Compound 22, and PEG-Glu-ECyd in which 3′-ethynylcytidine derivative is bonded to a polyethylene glycol-polyglutamic acid block copolymer, and PEG-Glu-(ECyd, PheOBzl) in which 3′-ethynylcytidine and phenylalanine benzyl ester are bonded to a polyethylene glycol-polyglutamic acid block copolymer, which were manufactured by the method described in the pamphlet of WO 2006/120914 A as the comparative compounds, were dissolved in PBS solution (phosphate buffered saline; pH 7.4) at 1 mg/mL of the concentration, respectively, and incubated at 37° C. The 3′-ethynylcytidine released from each polymer derivative was quantified using HPLC. The ratio to the total amount of the medicament in the polymer derivative found out from the quantified value and the content of the medicament of the polymer derivative are indicated in FIGS. 1 to 3.

[4] = single intravenous administration, dose 6 mg/Kg in conversion to 3′-ethynylcytidine
[5] = single intravenous administration, dose 12 mg/Kg in conversion to 3′-ethynylcytidine

Compound | Relative ratio of tumor volume ([1]; subcutaneous infusion over 24 hours using Alzet pump, dose 6 mg/Kg) | Micelle formation in water [2] | RMS radius by static light scattering method [2] [nm] | RMS radius by Gaussian distribution analysis (dynamic light scattering) [2] [nm] | Release of 3′-ethynylcytidine from the polymer derivative [3] | Release rate of 3′-ethynylcytidine relative to the comparative compounds [3] | Release of 3′-ethynylcytidine relative to PEG-Glu-ECyd [3] | Relative ratio of tumor volume [1, 4] | Relative ratio of tumor volume [1, 5] | Anti-tumor effects in comparison to 3′-ethynylcytidine as the control drug [1]
C#C[C@@]1(O)[C@@H](CO)O[C@@H](n2ccc(N)nc2=O)[C@@H]1O [Control drug, 3′-ethynylcytidine, reference compound] | 49.4 | – | – | – | – | – | – | – | – | –
amide-bonded body of block copolymer including methoxy polyethylene-glycol structural moiety having 12,000 of the molecular weight and polyglutamic acid moiety having 21 of the polymerization number, to aspartic acid-1-adamantane methyl amide-4-(3′-ethynylcytidine)amide [Compound 15] | – | formed a micelle in water | 13 | 20 | release 3′-ethynylcytidine despite the absence of a hydrolysis enzyme | equal to or more than that of the comparative compounds | – | – | – | –
amide-bonded body of block copolymer including methoxy polyethylene-glycol structural moiety having 12,000 of the molecular weight and polyglutamic acid moiety having 21 of the polymerization number, to aspartic acid-1-butyl amide-4-(3′-ethynylcytidine)amide [Compound 10] | – | did not form a micelle in water at this concentration | – | – | release 3′-ethynylcytidine despite the absence of a hydrolysis enzyme | equal to or more than that of the comparative compounds | more rapidly than PEG-Glu-ECyd | 46.7 | 26.4 | strong anti-tumor effects
amide-bonded body of block copolymer including methoxy polyethylene-glycol structural moiety having 12,000 of the molecular weight and polyglutamic acid moiety having 21 of the polymerization number, to aspartic acid-1-phenylalanine-(4-phenylbutyl ester)-4-(3′-ethynylcytidine)amide [Compound 21] | – | formed a micelle in water | 40 | 41 | release 3′-ethynylcytidine despite the absence of a hydrolysis enzyme | equal to or more than that of the comparative compounds | – | – | – | –
amide-bonded body of block copolymer including methoxy polyethylene-glycol structural moiety having 12,000 of the molecular weight and polyglutamic acid moiety having 21 of the polymerization number, to aspartic acid-1-phenylbutyl amide-4-(3′-ethynylcytidine)amide [Compound 5] | – | forms a micelle in water | 11 | 18 | release 3′-ethynylcytidine despite the absence of a hydrolysis enzyme | equal to or more than that of the comparative compounds | more rapidly than PEG-Glu-ECyd | 44.9 | 29.3 | strong anti-tumor effects
amide-bonded body of block copolymer including two methoxy polyethylene glycol moieties having 5,000 of the molecular weight and polyglutamic acid moiety having 21 of the polymerization number, to aspartic acid-1-adamantane methyl amide-4-(3′-ethynylcytidine)amide [Compound 22] | – | formed a micelle in water | 8 | 14 | release 3′-ethynylcytidine despite the absence of a hydrolysis enzyme | equal to or more than that of the comparative compounds | – | – | – | –
